Values joined by “and” are separate entries in the source; they are usually repeats but may differ in a detail not shown here. Equal values may be shown once.
Target: pyruvate kinase M2 (mouse (endogenous in RAW264.7)) (UniProt P52480)
Assay: cross-linking; RAW264.7 macrophages treated with 15KPF, lysed, lysate incubated with 2.5 mM disuccinimidyl suberate for 30 min; 10% SDS-PAGE and PKM2 immunoblot

pyruvate kinase M2, P52480 1-531 (enzyme; other documents disagree on this pair), sequence (P52480 whole entry): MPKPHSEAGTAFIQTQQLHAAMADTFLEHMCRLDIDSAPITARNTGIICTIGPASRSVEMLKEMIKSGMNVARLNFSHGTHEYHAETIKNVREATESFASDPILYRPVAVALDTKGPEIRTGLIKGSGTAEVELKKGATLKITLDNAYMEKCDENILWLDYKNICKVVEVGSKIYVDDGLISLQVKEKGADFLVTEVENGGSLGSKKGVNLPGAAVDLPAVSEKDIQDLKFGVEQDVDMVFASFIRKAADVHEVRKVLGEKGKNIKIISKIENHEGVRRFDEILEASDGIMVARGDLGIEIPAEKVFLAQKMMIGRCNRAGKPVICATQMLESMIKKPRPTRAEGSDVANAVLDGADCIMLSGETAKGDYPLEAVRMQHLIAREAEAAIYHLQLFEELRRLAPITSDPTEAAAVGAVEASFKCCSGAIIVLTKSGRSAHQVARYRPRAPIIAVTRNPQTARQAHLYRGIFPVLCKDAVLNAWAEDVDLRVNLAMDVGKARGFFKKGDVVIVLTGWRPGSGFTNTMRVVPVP

## pyruvate kinase M2, P52480 1-531 (enzyme; other documents disagree on this pair)
  stoichiometry N: 4 and 2
